Assay results taken from PMC4240464.

target: Evasin-4–Fc (Rhipicephalus sanguineus); test: SPR

CCL7, sequence (P80098 24-99): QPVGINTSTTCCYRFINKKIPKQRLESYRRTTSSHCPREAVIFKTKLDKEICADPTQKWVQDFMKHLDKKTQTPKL
CCL11, sequence (P51671 24-97): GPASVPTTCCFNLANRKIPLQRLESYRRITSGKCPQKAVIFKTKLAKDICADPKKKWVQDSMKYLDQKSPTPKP
CCL26, sequence (Q9Y258 24-94): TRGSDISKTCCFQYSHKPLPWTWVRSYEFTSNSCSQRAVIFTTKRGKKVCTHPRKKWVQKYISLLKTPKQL
CCL8, sequence (P80075 24-99): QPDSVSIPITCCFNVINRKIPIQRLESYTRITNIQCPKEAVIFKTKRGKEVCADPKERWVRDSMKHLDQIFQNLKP
CCL3, sequence (P10147 24-92): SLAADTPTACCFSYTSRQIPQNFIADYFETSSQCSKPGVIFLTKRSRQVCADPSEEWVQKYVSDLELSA

Substance	Kd [nM]
CCL3 (from UniProt P10147 24-92) (ligand)	6.79
CCL5 E26A (from UniProt P13501 24-91) (ligand)	1.72
CCL7 (from UniProt P80098 24-99) (ligand)	0.053
CCL8 (from UniProt P80075 24-99) (ligand)	0.015
CCL11 (from UniProt P51671 24-97) (ligand)	3.6
CCL26 (from UniProt Q9Y258 24-94) (ligand)	15.6

target: Fc–Evasin-4 (Rhipicephalus sanguineus); test: SPR

Substance	Kd [nM]
CCL3 (from UniProt P10147 24-92) (ligand)	0.277
CCL5 E26A (from UniProt P13501 24-91) (ligand)	0.02
CCL7 (from UniProt P80098 24-99) (ligand)	0.134
CCL8 (from UniProt P80075 24-99) (ligand)	0.088
CCL11 (from UniProt P51671 24-97) (ligand)	0.099
CCL26 (from UniProt Q9Y258 24-94) (ligand)	17.3

target: CCL24 (human) (UniProt O00175); test: not given
Sequence (O00175 27-119): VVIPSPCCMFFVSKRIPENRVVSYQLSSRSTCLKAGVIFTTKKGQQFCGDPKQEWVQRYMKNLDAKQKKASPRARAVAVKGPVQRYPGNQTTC

Substance	IC50, inhibition of chemotaxis of L1.2 CCR3 cells to CCL24 (EC80 10 nM) [nM]
Evasin-4–Fc (Fc fusion)	642
Fc–Evasin-4 (Fc fusion)	113

target: CCL22 (human) (UniProt O00626); test: not given
Sequence (O00626 25-93): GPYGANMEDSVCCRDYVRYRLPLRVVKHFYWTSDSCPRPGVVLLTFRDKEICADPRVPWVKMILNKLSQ

Substance	IC50, inhibition of chemotaxis of L1.2 CCR4 cells to CCL22 (EC80 1 nM) [nM]
Evasin-4–Fc (Fc fusion)	38

target: CCL5 (wild type) (human) (UniProt P13501); test: not given
Sequence (P13501 24-91): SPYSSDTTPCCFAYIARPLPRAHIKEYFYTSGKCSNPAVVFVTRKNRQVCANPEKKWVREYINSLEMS

Substance	IC50, inhibition of chemotaxis of L1.2 CCR5 cells to CCL5 (EC80 1 nM) [nM]
Evasin-4–Fc (Fc fusion)	9.6

target: CCL11 (human) (UniProt P51671); test: not given
Sequence (P51671 24-97): as the sequence (P51671 24-97) above

Substance	IC50, inhibition of chemotaxis of L1.2 CCR3 cells to CCL11 (EC80 1 nM) [nM]
Evasin-4–Fc (Fc fusion)	1540
Fc–Evasin-4 (Fc fusion)	88
